T1: human IL-10Rα on cells (human, UniProt Q13651 22-578)
T1 construct: Full-length entry with signal peptide; endogenous on PBMC and RPMI-8226 cells, transfected in EL-4 and CHO-K1 cells; also called IL-10R on RPMI-8226 cells; IL-10Rα on human PBMC, lymphocytes and monocytes
T1 sequence: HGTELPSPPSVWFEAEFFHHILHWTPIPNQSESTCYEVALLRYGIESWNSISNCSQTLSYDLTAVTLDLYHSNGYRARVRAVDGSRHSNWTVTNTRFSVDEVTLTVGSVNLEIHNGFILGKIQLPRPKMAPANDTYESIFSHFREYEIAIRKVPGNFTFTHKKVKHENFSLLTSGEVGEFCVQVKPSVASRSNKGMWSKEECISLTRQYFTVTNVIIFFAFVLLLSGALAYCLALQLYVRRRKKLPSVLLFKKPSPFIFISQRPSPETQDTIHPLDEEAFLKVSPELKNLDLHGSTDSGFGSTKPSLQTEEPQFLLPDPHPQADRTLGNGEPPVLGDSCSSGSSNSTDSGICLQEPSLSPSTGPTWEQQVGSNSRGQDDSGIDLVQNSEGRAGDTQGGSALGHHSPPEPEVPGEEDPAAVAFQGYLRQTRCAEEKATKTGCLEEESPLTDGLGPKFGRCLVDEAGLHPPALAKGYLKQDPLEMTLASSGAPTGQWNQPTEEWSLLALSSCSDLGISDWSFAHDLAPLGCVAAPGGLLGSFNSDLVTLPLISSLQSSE


Assays:
human IL-10Rα on cells [1] = biological target: T1, human IL-10Rα on cells; test: flow cytometry on RPMI-8226 cells; detection anti-human IgG-PE [B]
Text: A) Titration of anti-IL-10Rα antibodies binding to coated human IL-10Rα:hFc. Binding was detected with anti-human kappa-HRP, anti-mouse IgG-HRP, or anti-rat IgG-HRP. […] RPMI-8226 cells were labeled with anti-human IL-10Rα antibodies at various concentrations and detected with anti-human IgG-PE. The commercial rat anti-human IL-10Rα antibody 3F9 was detected with anti-rat IgG-PE. The geometric mean fluorescence intensity (geo mean) data are shown.
The cells were washed once in staining buffer: PBS+2% FBS+0.01% NaN₃+10 mM EDTA, then blocked with 20 μg/ml rabbit IgG (Jackson Immunoresearch), resuspended in serum, supernatant, purified anti-human IL-10Rα antibodies, or isotype control antibodies in a final volume of 50 μl. The cells were incubated with the antibodies on ice for 20 minutes, washed twice in staining buffer then resuspended in an anti-human IgG secondary antibody for 20 minutes. […] If the biotinylated antibody was used, antibody binding was detected by labeling with streptavidin-phycoerythrin (SA-PE) for 20 minutes. Binding of rat and mouse anti-hIL-10Rα antibodies were detected with either biotinylated or PE conjugated anti-rat or anti-mouse IgG antibodies from multiple sources (Jackson Immunoresearch; Southern Biotech Associates; and BD Pharmingen, San Diego, Calif.). […]

human IL-10Rα on cells [2] = biological target: T1, human IL-10Rα on cells; test: flow cytometry, RPMI-8226 cells pre-incubated with biotinylated human IL-10 (competitor)
Method: IL-10 Blocking Assay: To determine if the anti-human IL-10Rα antibodies were blocked by binding of IL-10 to the receptor on the cell surface, a flow cytometric protocol was used. In the flow cytometric assay, RPMI-8226 cells were washed and resuspended in staining buffer and then incubated with biotinylated human IL-10 or a negative control protein (R&D Systems) for 30 minutes on ice. The anti-IL-10Rα antibodies were then added to the cells for an additional 30 minutes. The cells were washed and incubated with anti-human IgG conjugated to PE (Southern Biotech Associates) for 30 minutes. After another wash, the cells were fixed with 1% paraformaldehyde and analyzed on a FACS Calibur. The fold reduction in antibody binding was determined using the geometric mean fluorescence intensity in the following formula: Fold reduction=geometric mean fluorescence intensity in the absence of IL-10/geometric mean fluorescence intensity binding in presence of IL-10.
Recombinant IL-10 binding to the IL-10R expressed by RPMI-8226 cells reduced binding of the anti-human IL-10Rα antibodies (FIG. 3A). The reduction in antibody binding was similar for all antibodies tested. […] The fold reduction in binding by IL-10 (Table 3) was determined by dividing the geo mean of the antibody binding in the absence of IL-10 by the geo mean in the presence of IL-10. […]

[3] = biological target: T2, SNP variant V233M of human IL-10Rα extracellular domain fused to the Fc portion of human IgG1 (human); test: ELISA, coated SNP variant Fc fusion V233M [F]
T2 construct: The entry already holds the change and includes the signal peptide

[4] = biological target: T3, SNP variant V113I of human IL-10Rα extracellular domain fused to the Fc portion of human IgG1 (human); test: ELISA, coated SNP variant Fc fusion V113I [C]
T3 construct: The entry already holds the change and includes the signal peptide; also called V1131

EC50 (read off the curve) (human IL-10Rα on cells [1]) | Fold Reduction by IL-10 (human IL-10Rα on cells [2]) | binding result [3] | binding result [4] | Binder
~0.5 µg/mL | 1.88 fold |  |  | 136C5 (antibody, V domains shown, Hybridoma antibody, human IgG1, kappa light chain; also called human anti-human IL-10Rα monoclonal antibody 136C5; hybridoma deposit PTA-9131) VH: EVQLVESGGGLVQPGGSLRLSCAASGFTFSSYSMNWVRQAPGKGLEWVSYISTGSSTIYYADSVKGRFTISRDNAKNSLYLQMNSLRDEDTAVYYCARENYYGSGSYEDYFDYWGQGTLVTVSS VL: EIVLTQSPATLSLSPGERATLSCRASQSVSSYLAWYQQKPGQAPRLLIYDASNRATGIPARFSGSGSGTDFTLTISSLEPEDFAVYYCQQRSNWPIFTFGPGTKVDIK
~0.5 µg/mL | 1.98 fold | binds | binds | 136C8 (antibody, V domains shown, Hybridoma antibody, human IgG2, kappa light chain; also called human anti-human IL-10Rα monoclonal antibody 136C8; hybridoma deposit PTA-9132) VH: EVQLVESGGGLVQPGGSLRLSCAASGFTFSSYSMNWVRQAPGKGLEWVSYISTRSSTIYYADSVKGRFTISRDNAKNSLYLQMNSLRDEDTAVYYCARENYYGSGSYEDYFDYWGQGTLVTVSS VL: EIVLTQSPATLSLSPGERATLSCRASQSVSSYLAWYQQKPGQAPRLLIYDASNRATGIPARFSGSGSGTDFTLTISSLEPEDFAVYYCQQRSNWPIFTFGPGTKVDIK

From patent US20110144312A1 (Kyowa Kirin, published 2011)
